Key:
[1] = target: Rat N4; assay: flow cytometry, transfected CHO cells
[2] = target: Monkey N4; assay: flow cytometry, transfected CHO cells
[3] = target: Mouse N4; assay: flow cytometry, transfected CHO cells
[4] = target: T1, human Nectin-4 on cells (CHO cells transfected with human Nectin-4 cDNA); SUM190 tumor cells; normal … (human, UniProt Q96NY8 32-510); assay: flow
T1 chain: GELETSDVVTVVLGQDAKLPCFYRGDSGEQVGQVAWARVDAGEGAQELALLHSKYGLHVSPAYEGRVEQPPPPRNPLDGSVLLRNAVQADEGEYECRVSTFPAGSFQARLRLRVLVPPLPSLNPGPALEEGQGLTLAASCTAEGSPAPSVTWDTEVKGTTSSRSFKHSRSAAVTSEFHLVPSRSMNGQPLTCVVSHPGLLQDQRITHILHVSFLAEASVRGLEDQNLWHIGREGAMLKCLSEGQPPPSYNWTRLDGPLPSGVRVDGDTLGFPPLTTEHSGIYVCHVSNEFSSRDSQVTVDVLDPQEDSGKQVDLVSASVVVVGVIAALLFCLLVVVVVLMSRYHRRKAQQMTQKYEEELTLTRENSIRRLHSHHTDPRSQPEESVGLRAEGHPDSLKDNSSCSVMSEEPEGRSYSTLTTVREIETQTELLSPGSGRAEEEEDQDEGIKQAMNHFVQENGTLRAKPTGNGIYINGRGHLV

[5] = target: T1, human Nectin-4 on cells (CHO cells …); assay: flow cytometry, transfected CHO cells
[6] = target: Mouse N4; assay: flow cytometry, transfected CHO cells; ambiguous fit
[7] = target: Rat N4; assay: as above

B1: HA22 (antibody, V domains shown)
VH: EVQLVESGGGLVQPGGSLRLSCAASGFTFSSYNMNWVRQAPGKGLEWVSYISSSSSTIYYADSVKGRFTISRDNAKNSLSLQMNSLRDEDTAVYYCARAYYYGMDVWGQGTTVTVSS
VL: DIQMTQSPSSVSASVGDRVTITCRASQGISGWLAWYQQKPGKAPKFLIYAASTLQSGVPSRFSGSGSGTDFTLTISSLQPEDFATYYCQQANSFPPTFGGGTKVEIK
EC50 [1]: 97 pM
EC50 [2]: 67.8 pM
EC50 [3]: 41100 pM

B2: HA22 (Enfortumab), human monoclonal anti-Nectin-4 antibody (antibody, V domains shown)
VH: EVQLVESGGGLVQPGGSLRLSCAASGFTFSSYNMNWVRQAPGKGLEWVSYISSSSSTIYYADSVKGRFTISRDNAKNSLSLQMNSLRDEDTAVYYCARAYYYGMDVWGQGTTVTVSS
VL: DIQMTQSPSSVSASVGDRVTITCRASQGISGWLAWYQQKPGKAPKFLIYAASTLQSGVPSRFSGSGSGTDFTLTISSLQPEDFATYYCQQANSFPPTFGGGTKVEIK
EC50 [4]: 346 pM

B3: Ch-3A1.4 (antibody, V domains shown)
VH: DVQLQESGPSLVKPSQTLSLTCSVTGDSITSGYWNWIRKFPGNKLEYMGYISNSGITYYNPSLKSRISITRDTSKNQYFLQLNSVTAEDTATYYCTRFGSTMILYYTMDYWGQGTSVTVSS
VL: DIVMTQSPVTLSVTPGDRVSLSCRASQSISDYLHWYQQKSQESPRLLIKYASKSISGIPSRFSGSGSGSNFTLSINSVEPEDVGVYYCQNGHSFPLTFGAGTKLELK
EC50 [5]: 2840 pM

B4: Ch-5A12.2 (antibody, V domains shown)
VH: QIQLQQSGAELVKPGASVTLSCKTSGFTFNSMYISWLKQKPGQSLEWIAWIYAGTGGTRFNQKFTGKVQLTVDTSSSTAYMQFSSLTTDDSAIYYCAIRSGFVPMDYWGQGTSVTVSS
VL: SIVMTQTPKFLLVSAGDRVTITCKASQSVSNDVAWYQQKPGQSPKLLIYYASNRYTGVPDRFTGSGYGTDFTFTISTVQAEDLAVYFCQQDYSSPWTFGGGTKLEIK
EC50 [1]: 478 pM
EC50 [2]: 134 pM
EC50 [6]: ~205000 pM

B5: Ch-5A12.2 (chimeric anti-Nectin-4 monoclonal antibody 5A12.2) (antibody, V domains shown)
VH: QIQLQQSGAELVKPGASVTLSCKTSGFTFNSMYISWLKQKPGQSLEWIAWIYAGTGGTRFNQKFTGKVQLTVDTSSSTAYMQFSSLTTDDSAIYYCAIRSGFVPMDYWGQGTSVTVSS
VL: SIVMTQTPKFLLVSAGDRVTITCKASQSVSNDVAWYQQKPGQSPKLLIYYASNRYTGVPDRFTGSGYGTDFTFTISTVQAEDLAVYFCQQDYSSPWTFGGGTKLEIK
EC50 [5]: 370 pM

B6: Ch-15A7.5 (antibody, V domains shown)
VH: EVKLVESGGGLVQPGGSRKLSCAASGFTFSNYGMAWVRQAPGKGPEWVAFISNLAYGINYADTVTGRFTISRENAKNTLYLEMRSLRSEDTAMYYCARGARATGWFAYWGQGTLVTVSA
VL: DIVMTQSQKFMSTSIGDRVSVTCKASQNVDTHVAWYQEKPGQSPKALIYSASYRYSGVPDRFTGSGSGTDFTLTISNVQSEDLADYFCQQYNSYPLTFGGGTKLEIK
EC50 [2]: 1220 pM
EC50 [7]: ~5160 pM
EC50 [6]: ~31200 pM

B7: Ch-15A7.5 (chimeric anti-Nectin-4 monoclonal antibody 15A7.5) (antibody, V domains shown)
VH: EVKLVESGGGLVQPGGSRKLSCAASGFTFSNYGMAWVRQAPGKGPEWVAFISNLAYGINYADTVTGRFTISRENAKNTLYLEMRSLRSEDTAMYYCARGARATGWFAYWGQGTLVTVSA
VL: DIVMTQSQKFMSTSIGDRVSVTCKASQNVDTHVAWYQEKPGQSPKALIYSASYRYSGVPDRFTGSGSGTDFTLTISNVQSEDLADYFCQQYNSYPLTFGGGTKLEIK
EC50 [5]: 692 pM
